According to patent US20250115668A1 (BIOCYTOGEN PHARMACEUTICALS BEIJING, published 2025):
Read-outs that look alike come from different tables or passages of the source.

Key:
[1] = molecular target: T1, Human CTLA4 protein having a His-Tag (human, UniProt P16410 37-162, limits assumed); test: SPR Biacore 8K, Protein A chip; antibody captured, antigen analyte
T1 construct: Bought recombinant protein; also called hCTLA4-His; hCTLA4; not shown: His tag
T1 sequence (looked up): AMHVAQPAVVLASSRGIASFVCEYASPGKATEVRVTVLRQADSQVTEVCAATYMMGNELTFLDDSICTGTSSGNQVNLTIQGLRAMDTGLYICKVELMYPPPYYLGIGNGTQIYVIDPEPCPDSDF

[2] = molecular target: T2, Cynomolgus/Rhesus macaque OX40/TNFRSF4/CD134 Protein, His Tag (Cynomolgus/Rhesus macaque); test: as above
T2 construct: Bought recombinant protein; also called fasOX40-His; monkey OX40

[3] = molecular target: T3, Human OX40 protein having a His-Tag (human, UniProt P43489 29-216, limits assumed); test: as above
T3 construct: Bought recombinant protein; also called hOX40-His; hOX40; not shown: His tag
T3 sequence (looked up): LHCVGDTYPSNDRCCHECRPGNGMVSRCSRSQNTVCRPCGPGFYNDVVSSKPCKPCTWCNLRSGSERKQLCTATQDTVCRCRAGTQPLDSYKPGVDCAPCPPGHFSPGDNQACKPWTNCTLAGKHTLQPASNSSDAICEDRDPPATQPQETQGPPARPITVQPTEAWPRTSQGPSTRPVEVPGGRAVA

[4] = molecular target: T3, Human OX40 protein having a His-Tag; test: as above; remark: listed apart in the source
[5] = molecular target: T1, Human CTLA4 protein having a His-Tag; test: as above; remark: listed apart in the source
[6] = molecular target: T4, Cynomolgus/Rhesus macaque CTLA-4 Protein, His Tag (Cynomolgus/Rhesus macaque); test: as above
T4 construct: Bought recombinant protein; also called fasCTLA4-His; FasCTLA4-His

[7] = molecular target: T5, human OX40 expressed on transfected cells (human, UniProt P43489 29-277); test: flow cytometry (MFI, anti-hIgG-Fc-Alexa Fluor 647) on HEK293T-hCTLA4-hOX40 cells co-expressing human CTLA4 and human OX40
T5 construct: whole, on cells; also called hOX40 on HEK293T-hCTLA4-hOX40 cells; on Jurkat-luc-hOX40
T5 sequence (looked up): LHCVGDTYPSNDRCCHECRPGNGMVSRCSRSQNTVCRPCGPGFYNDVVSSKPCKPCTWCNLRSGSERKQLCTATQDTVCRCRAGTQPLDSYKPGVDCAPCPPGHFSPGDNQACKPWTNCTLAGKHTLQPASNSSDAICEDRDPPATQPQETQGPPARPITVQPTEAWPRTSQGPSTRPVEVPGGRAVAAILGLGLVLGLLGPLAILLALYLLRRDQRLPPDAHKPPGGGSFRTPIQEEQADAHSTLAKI

B1: CT-5F9-IgG1 (antibody, V domains shown)
VH: QVQLVESGPGLLKPSETLSLTCTVSGGSISSSSSYWGWIRQPPGKGLEWIGSIYYSGITYYNPSLKSRVTISVDTSKNQFSLKVSSVTAADTAVYYCARLNWNQVFDYWGQGTLVTVSS
VL: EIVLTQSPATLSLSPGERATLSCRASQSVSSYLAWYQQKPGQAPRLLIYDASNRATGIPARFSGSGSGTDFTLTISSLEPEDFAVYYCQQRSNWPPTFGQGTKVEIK
notes: Human anti-CTLA4 antibody; IgG1 constant regions
Kd [1]: 7.48 nM | koff [1]: 0.00123 s⁻¹ | kon [1]: 164000 M⁻¹ s⁻¹

B2: OX-2F5-CT-3D2-IgG1-SI (bispecific antibody, V domains shown)
VH 1: QVQLVESGPTLVKPTQTLTLTCTFSGFSLSTSGVGVGWIRQSPGKALEWLSLIYWDDDKRYNPSLKSRLTVTKDTSKNQVVLAMTNMDPVDTATYFCAHRAHSSSSSDYWGQGTLVTVSS
VH 2: QVQLVESGPGLVKPSETLSLTCTVSGDSIRSSHYYWGWIRQPPGKGLEWIGSIYFNGITYYSPSLKSRVTISVDTSKNQFSLKLTSVTAADTAVFYCARHNNYYDSSGYWYYFDYWGQGTLVTVSS
VL: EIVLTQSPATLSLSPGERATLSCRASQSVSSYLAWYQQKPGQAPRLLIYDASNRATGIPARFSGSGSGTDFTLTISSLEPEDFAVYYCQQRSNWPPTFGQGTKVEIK
notes: 1+1 knobs-into-holes human IgG1 with common light chain; SI mutations (S239D, I332E, EU)
Kd [2]: 30.4 nM | koff [2]: 0.0257 s⁻¹ | kon [2]: 845000 M⁻¹ s⁻¹ | Kd [3]: 69.6 nM | koff [3]: 0.00947 s⁻¹ | kon [3]: 136000 M⁻¹ s⁻¹

B3: OX-2F5-IgG1 (antibody, V domains shown)
VH: QVQLVESGPTLVKPTQTLTLTCTFSGFSLSTSGVGVGWIRQSPGKALEWLSLIYWDDDKRYNPSLKSRLTVTKDTSKNQVVLAMTNMDPVDTATYFCAHRAHSSSSSDYWGQGTLVTVSS
VL: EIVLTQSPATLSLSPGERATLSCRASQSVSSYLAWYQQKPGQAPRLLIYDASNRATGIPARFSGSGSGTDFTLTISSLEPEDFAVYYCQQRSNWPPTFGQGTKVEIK
notes: Human anti-OX40 antibody; IgG1 constant regions
Kd [4]: 45.6 nM | koff [4]: 0.0343 s⁻¹ | kon [4]: 753000 M⁻¹ s⁻¹

B4: OX-1F9-CT-3D2-IgG1-SI (bispecific antibody, V domains shown)
VH 1: EVQLVESGGGLVQPGGSLRLSCAASGFTFSNYEMNWVRQAPGKGLEWISYIGSSGSTIYYADSVKGRFTISRDNAKNSLYLQMNSLRAEDTAVYYCAVDYIFDYWGQGTLVTVSS
VH 2: QVQLVESGPGLVKPSETLSLTCTVSGDSIRSSHYYWGWIRQPPGKGLEWIGSIYFNGITYYSPSLKSRVTISVDTSKNQFSLKLTSVTAADTAVFYCARHNNYYDSSGYWYYFDYWGQGTLVTVSS
VL: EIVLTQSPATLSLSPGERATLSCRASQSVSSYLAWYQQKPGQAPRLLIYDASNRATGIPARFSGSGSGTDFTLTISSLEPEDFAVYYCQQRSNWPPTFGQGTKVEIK
notes: as for B2
Kd [2]: 2.48 nM | koff [2]: 0.000371 s⁻¹ | kon [2]: 150000 M⁻¹ s⁻¹ | Kd [3]: 22.8 nM | koff [3]: 0.00698 s⁻¹ | kon [3]: 306000 M⁻¹ s⁻¹

B5: OX-2F2-CT-3D2-IgG1-SI (bispecific antibody, V domains shown)
VH 1: QVQLVESGGGLVQPGGSLRLSCAASGFTVSNNYMSWVRQAPGKGLEWVSVIYGGGDTYYADSVKGRFTISRDNSQNTLYLQMTSLRADDTAVYYCARGLTIFGVVPFDPWGQGTLVTVSS
VH 2: QVQLVESGPGLVKPSETLSLTCTVSGDSIRSSHYYWGWIRQPPGKGLEWIGSIYFNGITYYSPSLKSRVTISVDTSKNQFSLKLTSVTAADTAVFYCARHNNYYDSSGYWYYFDYWGQGTLVTVSS
VL: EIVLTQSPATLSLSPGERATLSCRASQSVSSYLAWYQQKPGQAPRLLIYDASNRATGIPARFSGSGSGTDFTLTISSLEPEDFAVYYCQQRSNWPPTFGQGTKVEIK
notes: as for B2
Kd [5]: 14.2 nM | koff [5]: 0.000774 s⁻¹ | kon [5]: 54600 M⁻¹ s⁻¹ | Kd [6]: 4.77 nM | koff [6]: 0.000612 s⁻¹ | kon [6]: 128000 M⁻¹ s⁻¹

B6: OX-2F2-IgG1 (antibody, V domains shown)
VH: QVQLVESGGGLVQPGGSLRLSCAASGFTVSNNYMSWVRQAPGKGLEWVSVIYGGGDTYYADSVKGRFTISRDNSQNTLYLQMTSLRADDTAVYYCARGLTIFGVVPFDPWGQGTLVTVSS
VL: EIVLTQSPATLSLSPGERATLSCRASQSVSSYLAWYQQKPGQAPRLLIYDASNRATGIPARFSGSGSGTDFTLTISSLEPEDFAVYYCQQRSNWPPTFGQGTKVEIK
notes: as for B3
Kd [4]: 20 nM | koff [4]: 0.0217 s⁻¹ | kon [4]: 1.09e+06 M⁻¹ s⁻¹

B7: CT-5E3-OX-2F2-IgG1-SI (bispecific antibody, V domains shown)
VH 1: QVQLVESGPGLVKPSETLSLTCTVSGGSISSSSYYWGWIRQPPGKGLEWIGSIYYTGNTYYNPSLKSRVTISVDTSKNQFSLKLSSVTAADTAVYYCARVGFSYGHPFDYWGQGTLVTVSS
VH 2: QVQLVESGGGLVQPGGSLRLSCAASGFTVSNNYMSWVRQAPGKGLEWVSVIYGGGDTYYADSVKGRFTISRDNSQNTLYLQMTSLRADDTAVYYCARGLTIFGVVPFDPWGQGTLVTVSS
VL: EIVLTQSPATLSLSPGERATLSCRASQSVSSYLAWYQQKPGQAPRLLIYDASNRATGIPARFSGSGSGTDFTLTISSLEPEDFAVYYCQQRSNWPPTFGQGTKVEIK
notes: as for B2
Kd [2]: 4.91 nM | koff [2]: 0.000205 s⁻¹ | kon [2]: 41800 M⁻¹ s⁻¹ | Kd [3]: 50.2 nM | koff [3]: 0.0136 s⁻¹ | kon [3]: 270000 M⁻¹ s⁻¹ | Kd [5]: 27.8 nM | koff [5]: 0.000909 s⁻¹ | kon [5]: 32700 M⁻¹ s⁻¹ | Kd [6]: 8.36 nM | koff [6]: 0.00105 s⁻¹ | kon [6]: 126000 M⁻¹ s⁻¹

B8: OX-1F9-IgG1 (antibody, V domains shown)
VH: EVQLVESGGGLVQPGGSLRLSCAASGFTFSNYEMNWVRQAPGKGLEWISYIGSSGSTIYYADSVKGRFTISRDNAKNSLYLQMNSLRAEDTAVYYCAVDYIFDYWGQGTLVTVSS
VL: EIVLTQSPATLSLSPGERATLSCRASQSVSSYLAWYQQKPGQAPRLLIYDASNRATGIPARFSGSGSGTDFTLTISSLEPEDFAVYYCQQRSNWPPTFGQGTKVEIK
notes: Human anti-OX40 antibody from RenLite mice
Kd [4]: 22.6 nM | koff [4]: 0.00744 s⁻¹ | kon [4]: 330000 M⁻¹ s⁻¹

B9: CT-4E12-IgG1 (antibody, V domains shown)
VH: QVQLVESGPGLVKPSETLSLTCAVSGGSISSSSYYWGWIRQPPGKGLEWIGNIYYTGITYYNPSLKSRITISVDTSKNQFSLKLSSVTAADTAVYYCARVGGYSYGYLFDYWGQGTLVTVSS
VL: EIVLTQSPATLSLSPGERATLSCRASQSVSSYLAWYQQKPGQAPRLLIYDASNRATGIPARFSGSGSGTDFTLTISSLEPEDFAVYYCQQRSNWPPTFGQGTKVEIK
notes: as for B1
Kd [1]: 17 nM | koff [1]: 0.000422 s⁻¹ | kon [1]: 24800 M⁻¹ s⁻¹

B10: OX-H7-IgG1 (antibody, V domains shown)
VH: QITLKESGPTLVKPAQTLTLTCTFSGFSLSTSGVGVGWIRQPPGKALEWLALIYWDDDKLYSPSLKSRLTITKDTSKNQVVLAMTNMDPVDTATYYCAHSQLGRDDYWGQGTLVTVSS
VL: EIVLTQSPATLCLSPGERATLSCRASQSVSNYLAWYQQKPGQAPRLLIYAASSRATGIPARFSGSGSGTDFTLTISTLEPEDFAVYYCQQRRDWPPTFGQGTKVEIK
notes: Monoclonal anti-OX40 antibody, IgG1 constant regions; also called 040-H7-IgG1
EC50 (read off the curve) [7]: ~5 µg/mL | Kd [4]: 13.8 nM | koff [4]: 0.00824 s⁻¹ | kon [4]: 598000 M⁻¹ s⁻¹

B11: CT-5E3-IgG1 (antibody, V domains shown)
VH: QVQLVESGPGLVKPSETLSLTCTVSGGSISSSSYYWGWIRQPPGKGLEWIGSIYYTGNTYYNPSLKSRVTISVDTSKNQFSLKLSSVTAADTAVYYCARVGFSYGHPFDYWGQGTLVTVSS
VL: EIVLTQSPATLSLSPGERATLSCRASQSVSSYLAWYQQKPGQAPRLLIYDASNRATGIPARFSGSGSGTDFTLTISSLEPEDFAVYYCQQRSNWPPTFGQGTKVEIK
notes: as for B1
Kd [1]: 21.8 nM | koff [1]: 0.000674 s⁻¹ | kon [1]: 30900 M⁻¹ s⁻¹

B12: OX-2C11-IgG1 (antibody, V domains shown)
VH: EVQLVQSGGGLVKPGGSLRLSCAASGFTFSDSYMSWIRQAPGKGLEWISYISSSISYTKYADSVKGRFTISRDNAKNSLYLEMNSLRAEDTAVYYCARDYYDSGNYYYYFDYWGQGTLVTVSS
VL: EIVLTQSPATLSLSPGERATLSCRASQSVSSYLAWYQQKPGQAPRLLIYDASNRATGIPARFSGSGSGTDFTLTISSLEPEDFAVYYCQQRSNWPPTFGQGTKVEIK
notes: as for B3
Kd [4]: 7.59 nM | koff [4]: 0.000412 s⁻¹ | kon [4]: 54400 M⁻¹ s⁻¹

B13: OX-2C11-CT-4E12-IgG1-SI (bispecific antibody, V domains shown)
VH 1: EVQLVQSGGGLVKPGGSLRLSCAASGFTFSDSYMSWIRQAPGKGLEWISYISSSISYTKYADSVKGRFTISRDNAKNSLYLEMNSLRAEDTAVYYCARDYYDSGNYYYYFDYWGQGTLVTVSS
VH 2: QVQLVESGPGLVKPSETLSLTCAVSGGSISSSSYYWGWIRQPPGKGLEWIGNIYYTGITYYNPSLKSRITISVDTSKNQFSLKLSSVTAADTAVYYCARVGGYSYGYLFDYWGQGTLVTVSS
VL: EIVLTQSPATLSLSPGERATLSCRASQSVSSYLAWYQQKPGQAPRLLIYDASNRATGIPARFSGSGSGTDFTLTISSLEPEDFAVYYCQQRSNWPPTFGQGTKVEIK
notes: 1+1 knobs-into-holes human IgG1 with common light chain; SI mutations (S239D, I332E, EU) in Fc
Kd [2]: 37 nM | koff [2]: 0.000685 s⁻¹ | kon [2]: 18500 M⁻¹ s⁻¹ | Kd [3]: 16.7 nM | koff [3]: 0.000626 s⁻¹ | kon [3]: 37500 M⁻¹ s⁻¹ | Kd [5]: 10.2 nM | koff [5]: 0.00023 s⁻¹ | kon [5]: 22400 M⁻¹ s⁻¹ | Kd [6]: 11.2 nM | koff [6]: 0.000422 s⁻¹ | kon [6]: 37800 M⁻¹ s⁻¹
